Results taken from patent US20240279350A1.

Target: human CD40 on cells (human) (UniProt P25942)
Assay: cell-based or functional assay

human CD40 on cells (human), sequence (P25942 21-277 limits assumed): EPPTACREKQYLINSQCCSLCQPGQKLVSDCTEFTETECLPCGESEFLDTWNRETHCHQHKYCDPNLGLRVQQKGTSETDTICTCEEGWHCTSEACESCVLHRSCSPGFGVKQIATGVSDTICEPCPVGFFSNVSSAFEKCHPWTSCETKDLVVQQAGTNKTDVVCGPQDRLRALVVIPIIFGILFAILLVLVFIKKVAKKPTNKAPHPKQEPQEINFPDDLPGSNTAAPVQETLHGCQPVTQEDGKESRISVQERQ

Hexameric CD40L (from UniProt P29965 116-261) (ligand)
EC50, CD83 expression, MoDC maturation assay: 0.24 nM
EC50, IL-8 release, MoDC maturation assay: 0.33 nM
